# Data reported in patent publication US20250136677A1 (ZOETIS SERVICES, published 2025).
# Where a chain is given by its changes, count along the chain named.
# B1: mouse anti IL-31 antibody 15H05 (antibody, mouse IgG1, kappa)
# heavy: QVQLQQSAAELARPGASVKMSCKTSGYTFTSYTIHWIKQRPGQGLEWIGNINPTSGYTENNQRFKDKTTLTVDRSSNTAYLQLHSLTSEDSAVYFCARWGFKYDGEWSFDVWGAGTTVTVSSKTTPPSVYPLAPGSAAQTNSMVTLGCLVKGYFPEPVTVTWNSGSLSSGVHTFPAVLESDLYTLSSSVTVPSSPRPSETVTCNVAHPASSTKVDKKIVPRDCGCKPCICTVPEVSSVFIFPPKPKDVLTITLTPKVTCVVVDISKDDPEVQFSWFVDDVEVHTAQTQPREEQFNSTFRSVSELPIMHQDWLNGKEFKCRVNSAAFPAPIEKTISKTKGRPKAPQVYTIPPPKEQMAKDKVSLTCMITDFFPEDITVEWQWNGQPAENYKNTQPIMNTNGSYFVYSKLNVQKSNWEAGNTFTCSVLHEGLHNHHTEKSLSHSPGK
# light: DIQMNQSPSSLSASLGDTITVTCRASQGISIWLSWYQQKPGNIPKVLINKASNLHIGVPPRFSGSGSGTHFTLTITSLQPEDIATYYCLQSQTYPLTFGGGTKLEINADAAPTVSIFPPSSEQLTSGGASVVCFLNNFYPKDINVKWKIDGSERQNGVLNSWTDQDSKDSTYSMSSTLTLTKDEYERHNSYTCEATHKTSTSPIVKSFNRNEC
# notes: Mouse hybridoma antibody, IgG1 kappa; also called Mu-15H05; MU-15H05
# Experiments:
# [1] = biological target: T1, canine IL-31 protein (Canine_IL31) (canine)
# T1 chain: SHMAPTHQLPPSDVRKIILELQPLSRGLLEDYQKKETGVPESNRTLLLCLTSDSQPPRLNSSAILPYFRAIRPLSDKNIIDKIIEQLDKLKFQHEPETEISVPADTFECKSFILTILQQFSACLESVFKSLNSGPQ
# [2] = biological target: T2, mutant feline IL-31 15H05 protein (Feline_IL31_15H05_mutant) (feline); test: indirect ELISA, IL-31 protein coated
# T2 construct: also called feline 15H05 mutant; 15H05 IL-31 mutant
# T2 chain: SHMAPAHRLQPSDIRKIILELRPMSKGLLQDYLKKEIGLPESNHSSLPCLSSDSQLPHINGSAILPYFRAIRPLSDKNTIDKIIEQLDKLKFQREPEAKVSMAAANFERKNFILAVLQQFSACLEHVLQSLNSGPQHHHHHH
# Method: (§1) For the indirect ELISA method, antibody binding to wildtype and feline IL-31 15H05 mutant proteins was assessed. All nine canine monoclonal antibodies (ZIL1, ZIL8, ZIL8, ZIL11, ZIL69, ZIL94, ZIL154, ZIL159, and ZIL171) were capable of binding to wildtype feline IL-31 and binding was impacted by mutations in the mAb 15H05 epitope region confirming the correct binding phenotype determined during the initial screening used to identify them. In comparison, the 11E12 antibody bound to the wild-type feline IL-31 and its binding was not impacted by the mutations in the 15H05 epitope region as evidenced by the data in FIG. 4. To confirm binding, biacore analysis was performed using canine, feline, equine, human, feline 15H05 mutant, and feline 11E12 mutant IL-31 proteins as surfaces and a single test concentration of antibody. Similar to ELISA observations, all antibodies tested bound to wildtype feline IL-31. In agreement with the data described above in this section, mouse antibodies 11E12 and 15H05 both bound to canine and feline IL-31 surfaces. Three additional antibodies where shown to have this dual binding property, ZIL69 (partial canine binding), ZIL94, and ZIL159. From this group of nine fully canine antibodies, only ZIL1 and ZIL9 cross-reacted with equine IL-31. Of note, antibody 15H05 was the only one of all assayed herein that bound to canine, feline, and equine IL-31 indicating some level of epitope conservation across the three species. In contrast, none of the antibodies described herein bound to human IL-31. Additional biacore surfaces were used to verify ELISA observations showing differential binding of antibodies to wildtype feline IL-31 and two proteins with mutations in the 15H05 (15H05 mutant) or 11E12 (11E12 mutant) epitopes. […] In agreement with the ELISA results, all fully canine antibodies were impacted by the 15H05 mutation with the exception of ZIL94, ZIL154, and ZIL171 (partially affected). Differing results can be attributed to differences in the two assay methodologies.
# [3] = biological target: T3, wildtype feline IL-31 protein (Feline_IL31_wildtype) (feline); test: indirect ELISA, IL-31 protein coated
# T3 construct: Full length feline IL-31 with C-terminal His tag, secreted from ExpiCHO cells; also called fIL-31
# T3 chain: T2 chain with A103P, A105D
# Method: as §1
binder,measurement,setting,value
B1,"IC50, inhibition of canine IL-31-induced STAT3 phosphorylation, feline FCWF4 cells",[1],25.7 µg/mL
same,ELISA OD,[2],0.05 OD
same,ELISA OD,[3],1.94 OD
